The target of data set [1] is BanLec (Musa acuminata, UniProt O22321). Nature of the data set: HPLC depletion assay of released gp120. Type of data set: binding. The following applies: 2-AB labelled gp120 N-glycans, 0-50 μM BanLec.
In data set [2] the target is BanLec (UniProt Q8L5H4). As to the kind of experiment: native MS.
Data set [3] deals with BanLec (UniProt Q8L5H4). Nature of the data set: SAXS.
Data set [4] addresses BanLec (UniProt Q8L5H4). Nature of the data set: ion mobility MS.
The target of data set [5] is BanLec (UniProt Q8L5H4). As to the kind of experiment: SEC-MALS. On the technique in general: Size exclusion chromatography separates by hydrodynamic size, large species first.
The next data set addresses BanLec D38G. Nature of the data set: native MS.
A further data set addresses BanLec Y46K. Nature of the data set: native MS.
In another data set the target is BanLec D133G. As to the kind of experiment: native MS.
In another data set the test system is HIV fusion to HeLa cells. The following applies: ref Swanson et al., 2010; cited from earlier work.
For a further data set, the system named is BG505 SOSIP.664. As to the kind of experiment: Negative-stain electron microscopy of BanLec with soluble Env trimer mimic. Also on record: species or system HIV. The following applies: incubation of BanLec with BG505 SOSIP.664.

These results are taken from publication PMC5556678 (Structure (London, England : 1993), 2017).

Where “and” joins values, the source holds several entries; their conditions need not be identical. Equal entries are not always repeated.

For `CC(=O)N[C@H]1[C@H](O[C@H]2[C@H](O)[C@@H](NC(C)=O)C(O)O[C@@H]2CO)O[C@H](CO)[C@@H](O[C@@H]2O[C@H](CO[C@H]3O[C@H](CO[C@H]4O[C@H](CO)[C@@H](O)[C@H](O)[C@@H]4O[C@H]4O[C@H](CO)[C@@H](O)[C@H](O)[C@@H]4O)[C@@H](O)[C@H](O[C@H]4O[C@H](CO)[C@@H](O)[C@H](O)[C@@H]4O[C@H]4O[C@H](CO)[C@@H](O)[C@H](O)[C@@H]4O)[C@@H]3O)[C@@H](O)[C@H](O[C@H]3O[C@H](CO)[C@@H](O)[C@H](O)[C@@H]3O[C@H]3O[C@H](CO)[C@@H](O)[C@H](O)[C@@H]3O[C@H]3O[C@H](CO)[C@@H](O)[C@H](O)[C@@H]3O)[C@@H]2O)[C@@H]1O` (some centres unmarked) [Man9], on BanLec [1], the “depletion of glycan upon addition of BanLec” value was “decreased considerably”.

In the case of “BanLec (from UniProt Q8L5H4 1-141) (natural protein)”, the stoichiometry N with BanLec [2], with BanLec [3], with BanLec [4] and in the data set with BanLec [5] was 4 throughout.

BanLec D38G (natural protein) yielded a stoichiometry N in the data set with BanLec D38G of 4.

In the case of BanLec Y46K (natural protein), the stoichiometry N in the data set with BanLec Y46K is 2 and 4.

Turning to Man5, the “depletion of glycan upon addition of BanLec” value at BanLec [1] is listed as “not depleted”.

In the data set with BanLec D133G, BanLec D133G (natural protein) returned a stoichiometry N of 4.

B1: BanLec: recombinant tetrameric plant (banana) lectin with anti-HIV activity, expressed in E. coli (protein)
chain: MNGAIKVGAWGGNGGSAFDMGPAYRIISVKIFSGDVVDAVDVTFTYYGKTETRHFGGSGGTPHEIVLQEGEYLVGMKGEFGNYHGVVVVGKLGFSTNKKSYGPFGNTGGTPFSLPIAAGKISGFFGRGGDFIDAIGVYLEP
modifications: left off: polyhistidine tag, N-terminal, cleaved
Take B1: in the data set with HIV fusion to HeLa cells, the “IC50, inhibition of HIV fusion to HeLa cells” value is recorded as “low-nanomolar range”. Also, the “effect on soluble Env trimer mimic by negative-stain EM” value with BG505 SOSIP.664 is “aggregation”.

What is called stoichiometry N is a count of units in the complex or per binding partner.
